Test results published in patent US20150239981A1.

Tests used:
FcγRI (human) [1] = biological target: FcγRI (human) (UniProt P12314); experiment: SPR Biacore T100, FcγRI captured by pentaHis antibody, antibody as analyte 0-100 nM
Target sequence in this assay (P12314 16-288 limits assumed): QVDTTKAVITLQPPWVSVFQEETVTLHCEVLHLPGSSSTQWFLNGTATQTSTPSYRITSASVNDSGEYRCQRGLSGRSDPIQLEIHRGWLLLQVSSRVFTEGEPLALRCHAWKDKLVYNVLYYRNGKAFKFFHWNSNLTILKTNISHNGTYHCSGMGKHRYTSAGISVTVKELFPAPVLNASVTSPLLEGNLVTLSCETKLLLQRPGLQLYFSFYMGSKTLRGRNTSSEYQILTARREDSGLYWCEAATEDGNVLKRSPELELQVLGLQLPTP

FcγRI (human) [2] = biological target: FcγRI (human) (UniProt P12314); experiment: SPR
Target sequence in this assay (P12314 16-288): as the sequence (P12314 16-288 limits assumed) above

FcγRIIA-R131 (human) = FcγRIIA-R131 (human) (UniProt P12318); experiment: SPR Biacore T100, antibody immobilised, receptor as analyte 0-12800 nM, steady state fit
FcγRIIIA-V158 (human) = FcγRIIIA-V158 (human) (UniProt P08637); experiment: as above
Chain of FcγRIIIA-V158 (human) (P08637 17-208 F176V limits assumed): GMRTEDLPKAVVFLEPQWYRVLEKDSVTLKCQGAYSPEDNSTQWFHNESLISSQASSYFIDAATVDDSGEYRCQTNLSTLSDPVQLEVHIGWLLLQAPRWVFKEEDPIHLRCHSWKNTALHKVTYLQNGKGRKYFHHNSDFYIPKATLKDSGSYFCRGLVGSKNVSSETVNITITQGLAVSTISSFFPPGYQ

Chain of FcγRIIA-R131 (human) (P12318 36-218 H167R limits assumed): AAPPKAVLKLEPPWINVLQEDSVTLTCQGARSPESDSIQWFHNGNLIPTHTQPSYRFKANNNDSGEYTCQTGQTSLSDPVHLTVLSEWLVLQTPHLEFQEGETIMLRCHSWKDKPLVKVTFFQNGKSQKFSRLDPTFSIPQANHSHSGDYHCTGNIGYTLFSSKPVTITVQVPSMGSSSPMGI
Chain of IgG4 SPLE (antibody not named, Tables 2A and 2B) (constant): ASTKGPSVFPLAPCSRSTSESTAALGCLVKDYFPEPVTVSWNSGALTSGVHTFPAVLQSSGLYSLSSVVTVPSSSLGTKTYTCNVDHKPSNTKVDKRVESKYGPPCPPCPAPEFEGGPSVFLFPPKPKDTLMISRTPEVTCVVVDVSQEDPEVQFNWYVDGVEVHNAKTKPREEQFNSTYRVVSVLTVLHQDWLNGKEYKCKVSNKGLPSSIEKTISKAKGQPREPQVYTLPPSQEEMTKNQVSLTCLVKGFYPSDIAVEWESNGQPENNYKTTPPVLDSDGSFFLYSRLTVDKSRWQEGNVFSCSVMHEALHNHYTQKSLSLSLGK

| Substance | Kd (FcγRI (human) [1]) [nM] | Kd (FcγRI (human) [2]) [nM] | Kd (FcγRIIA-R131 (human)) [nM] | further results |
| --- | --- | --- | --- | --- |
| CD20 antibody GA101 IgG1 wildtype | 4.6 | – | – | – |
| GA P329G | – | 12 | – | – |
| IgG4 Wt | – | 14 | – | – |

The next lines start with results.

| Kd (FcγRI (human) [1]) [nM] | Kd (FcγRI (human) [2]) [nM] | Kd (FcγRIIA-R131 (human)) [nM] | Substance | further results |
| --- | --- | --- | --- | --- |
| 5.7 | – | – | CD20 antibody GA101 IgG1 P329G | – |
| – | – | 10000 | IgG4 SPLE (antibody not named, Tables 2A and 2B) | – |
| 5 | – | 2000 | WT IgG1 (antibody not named, Tables 2A and 2B) | Kd (FcγRIIIA-V158 (human)): 700 nM |
